We go through one variant from IntAct's records for PubMed 12813456.

To fix the notation:
B1: Protein E7 (Human papillomavirus type 16), P03129 (parent)
chain: MHGDTPTLHEYMLDLQPETTDLYCYEQLNDSSEEEDEIDGPAGQAEPDRAHYNIVTFCCKCDSTLRLCVQSTHVDIRTLEDLLMGTLGIVCPICSQKP

The variants in this assay derive from B1. The settings on record: with kat2b_human KAT2B.
As to L67A, the “effect of a mutation on the interaction” value was “decreasing interaction strength”.
